In test [1] the test system is myofibroblasts (MF). The test can be described thus: FACS antibody binding to myofibroblasts. On the set-up: species or system human. Conditions: binding Yes/No. How it is done: (§1) Human Pulmonary Fibroblasts (ScienCell) were cultured in complete Fibroblast Growth Medium (ScienCell) until 80% confluent in T-150 flasks. Cells were washed and harvested using Accutase. Cells were seeded into T-150 flasks at 7,500 cells/cm^2 in complete FGF and cultured for 72 hours. Cells were then washed and starved in serum reduced medium for 24 hours. After starvation, cells were treated with TGFβ-1 (R&D Systems) for 72 hours. Cells were harvested using Accutase and seeded in 96-well conical bottom plates. Cells were blocked with Heat Inactived Fetal Bovine Serum (Gibco) for 30 minutes at 4° C. Cells were then incubated with anti-α11 antibodies at the doses described in each figure for 30 minutes at 4° C. A human anti-α11 antibody (Creative BioLabs) was included as a positive control as well as the appropriate IgG isotype negative controls. Cells were washed twice and incubated with PE conjugated secondary antibodies specific to the IgG class of the anti-α11 antibodies being tested for 30 minutes at 4° C. Cells were washed twice and fixed in 1% PFA for 30 minutes. Cells were acquired on a FACS Verse […]. Data were analyzed by gating on single cells and determining the geometric Mean Fluorescence Intensity (gMFI) in the PE channel for each sample.
(§2) Binding to a physiologically relevant primary human cell type was also tested. Human pulmonary fibroblasts (HPF) and TGFβ treatment were used to induce a fibroblast-to-myofibroblast transition (FMT), giving rise to myofibroblasts (MF). […] Additionally, HPFs express α11 and α2β1, other collagen binding receptors, which means that HPFs can be to test cross-reactivity of antibodies of interest.

Test [2] has as its target T1, I domain of α11β1 (Homo sapiens, UniProt Q9UKX5).
T1 construct: An in-house generated I domain of α11β1 was used; made in house
T1 sequence (Q9UKX5 164-345 limits assumed): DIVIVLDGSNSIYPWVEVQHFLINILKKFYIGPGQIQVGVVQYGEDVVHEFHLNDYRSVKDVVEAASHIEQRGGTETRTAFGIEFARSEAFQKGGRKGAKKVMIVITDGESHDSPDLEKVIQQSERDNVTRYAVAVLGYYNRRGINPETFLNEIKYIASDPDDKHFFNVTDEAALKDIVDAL
Briefly: ELISA binding to in-house generated I domain of α11β1. To be noted: Yes/No. On the procedure: (§3) 0.25 μg/mL of target antigen (recombinant human or mouse α11β1) was plated in a 96-well plate over night at 4° C. Plates were washed (PBS with 0.1% Tween-20), blocked (PBS with 2% BSA and 0.05% Tween-20) for 1 hour at room temperature and incubated with a range of antibody concentrations for 1 hour at room temperature. Subsequently, plates were washed and incubated with biotinylated anti-rabbit/mouse/human IgG in a 1:1000 dilution buffer and incubated for 1 hour at room temperature. After washing the plates, Streptavidin HRP was added at 1:200 in dilution buffer and incubated for 1 hour at room temperature. Ultra TMB ELISA substrate solution was added and the plates incubated for 5 minutes on a plate shaker. The reaction was stopped by adding stop solution to each well and plates were read at 450 nm.
22 Data was also collected to determine whether antibodies of interest bind to the I domain of α11β1. An in-house generated I domain of α11β1 was used. […] Mouse antibodies 10-F23, 10-L15, 7-O8, 6-A12, 9-G05 and 9-E16 and rabbit antibodies 7-H12 and 2-D3 were also tested for binding against the in-house generated α11031 domain. FIGS. 3A and 3B show graphs illustrating binding data from exemplary mAbs.
(An ELISA detects its analyte on a solid surface through an enzyme-linked reagent.)

For test [3], the target named is human α11β1 (Homo sapiens, UniProt Q9UKX5). The test can be described thus: ELISA binding to recombinant human α11β1. Conditions: binding Yes/No. On the procedure:
as §3

The subject of test [4] is human pulmonary fibroblasts (HPFs). Briefly: FACS antibody binding to human pulmonary fibroblasts. To be noted: binding Yes/No. How it is done:
as §1, §2

Test [5] deals with mouse α11β1 (Mus musculus, UniProt P61622). Briefly: ELISA binding to recombinant mouse α11β1. To be noted: binding Yes/No. How it is done:
as §3

The test system of test [6] is CHO-K1 cells expressing human α11. Briefly: Cell adhesion inhibition (xCelligence), type I collagen. Conditions: Yes/No. It counts as cell-based. Summed up:
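CHO-K1 cells expressing human α11 (0.6×10^6 cells/mL) were preincubated with mAbs across a concentration range for 20 min at 37° C, then seeded on wells coated with 100 ng/mL type I collagen and blocked with 3% BSA. Impedance-based adhesion was recorded over 6 h, and maximum adhesion was compared with untreated control.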

Substitutions are numbered along the chain they refer to.

human α11β1, sequence (Q9UKX5 23-1141 limits assumed): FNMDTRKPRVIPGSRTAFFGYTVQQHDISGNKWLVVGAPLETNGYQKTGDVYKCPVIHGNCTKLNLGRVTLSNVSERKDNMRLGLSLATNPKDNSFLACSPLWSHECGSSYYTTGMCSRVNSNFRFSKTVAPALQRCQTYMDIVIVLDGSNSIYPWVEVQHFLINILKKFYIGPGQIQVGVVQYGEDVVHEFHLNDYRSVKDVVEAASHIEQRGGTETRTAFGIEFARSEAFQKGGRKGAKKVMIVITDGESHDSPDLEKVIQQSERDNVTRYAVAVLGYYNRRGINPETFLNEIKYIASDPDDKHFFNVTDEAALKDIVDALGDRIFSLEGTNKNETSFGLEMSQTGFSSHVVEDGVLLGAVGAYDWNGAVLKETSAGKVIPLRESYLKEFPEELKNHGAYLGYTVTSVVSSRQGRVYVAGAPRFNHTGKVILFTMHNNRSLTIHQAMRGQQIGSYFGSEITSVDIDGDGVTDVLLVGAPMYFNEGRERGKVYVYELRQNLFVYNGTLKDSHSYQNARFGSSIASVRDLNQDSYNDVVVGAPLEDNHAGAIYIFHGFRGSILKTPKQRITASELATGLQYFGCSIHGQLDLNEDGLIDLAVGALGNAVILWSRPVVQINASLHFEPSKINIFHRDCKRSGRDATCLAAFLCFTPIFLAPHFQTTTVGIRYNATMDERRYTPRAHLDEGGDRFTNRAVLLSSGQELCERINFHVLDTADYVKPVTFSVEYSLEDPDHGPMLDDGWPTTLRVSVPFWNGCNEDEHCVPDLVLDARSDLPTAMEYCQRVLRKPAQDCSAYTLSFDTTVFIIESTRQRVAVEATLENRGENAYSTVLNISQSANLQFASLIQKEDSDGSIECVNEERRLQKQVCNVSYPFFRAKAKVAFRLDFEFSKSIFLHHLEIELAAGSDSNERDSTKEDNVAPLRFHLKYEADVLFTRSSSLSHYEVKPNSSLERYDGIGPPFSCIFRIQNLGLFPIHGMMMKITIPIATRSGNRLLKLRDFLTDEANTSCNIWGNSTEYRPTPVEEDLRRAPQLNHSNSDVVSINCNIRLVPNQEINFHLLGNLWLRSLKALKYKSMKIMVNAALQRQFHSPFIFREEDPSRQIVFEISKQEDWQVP
human α11β1, sequence (P05556 21-728 partner limits assumed): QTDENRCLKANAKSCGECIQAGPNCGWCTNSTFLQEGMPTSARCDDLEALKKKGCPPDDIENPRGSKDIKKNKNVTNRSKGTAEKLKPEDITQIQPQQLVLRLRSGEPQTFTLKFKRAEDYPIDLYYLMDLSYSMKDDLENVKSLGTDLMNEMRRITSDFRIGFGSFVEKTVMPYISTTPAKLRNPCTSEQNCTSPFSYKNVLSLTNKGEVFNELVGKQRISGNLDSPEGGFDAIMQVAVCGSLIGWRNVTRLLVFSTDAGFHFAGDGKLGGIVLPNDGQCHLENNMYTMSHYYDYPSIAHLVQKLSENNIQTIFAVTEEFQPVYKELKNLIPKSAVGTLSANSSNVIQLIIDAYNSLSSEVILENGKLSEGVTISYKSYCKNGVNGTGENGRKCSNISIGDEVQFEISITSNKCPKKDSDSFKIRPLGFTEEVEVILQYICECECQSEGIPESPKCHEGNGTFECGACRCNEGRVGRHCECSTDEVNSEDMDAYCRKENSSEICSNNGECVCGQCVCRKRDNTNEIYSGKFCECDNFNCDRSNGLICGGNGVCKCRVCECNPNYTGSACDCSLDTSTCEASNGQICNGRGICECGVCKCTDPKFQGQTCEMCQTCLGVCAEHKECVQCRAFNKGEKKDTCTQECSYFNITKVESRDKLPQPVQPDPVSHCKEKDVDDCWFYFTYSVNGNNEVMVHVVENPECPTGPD
mouse α11β1, sequence (P61622 23-1141 limits assumed): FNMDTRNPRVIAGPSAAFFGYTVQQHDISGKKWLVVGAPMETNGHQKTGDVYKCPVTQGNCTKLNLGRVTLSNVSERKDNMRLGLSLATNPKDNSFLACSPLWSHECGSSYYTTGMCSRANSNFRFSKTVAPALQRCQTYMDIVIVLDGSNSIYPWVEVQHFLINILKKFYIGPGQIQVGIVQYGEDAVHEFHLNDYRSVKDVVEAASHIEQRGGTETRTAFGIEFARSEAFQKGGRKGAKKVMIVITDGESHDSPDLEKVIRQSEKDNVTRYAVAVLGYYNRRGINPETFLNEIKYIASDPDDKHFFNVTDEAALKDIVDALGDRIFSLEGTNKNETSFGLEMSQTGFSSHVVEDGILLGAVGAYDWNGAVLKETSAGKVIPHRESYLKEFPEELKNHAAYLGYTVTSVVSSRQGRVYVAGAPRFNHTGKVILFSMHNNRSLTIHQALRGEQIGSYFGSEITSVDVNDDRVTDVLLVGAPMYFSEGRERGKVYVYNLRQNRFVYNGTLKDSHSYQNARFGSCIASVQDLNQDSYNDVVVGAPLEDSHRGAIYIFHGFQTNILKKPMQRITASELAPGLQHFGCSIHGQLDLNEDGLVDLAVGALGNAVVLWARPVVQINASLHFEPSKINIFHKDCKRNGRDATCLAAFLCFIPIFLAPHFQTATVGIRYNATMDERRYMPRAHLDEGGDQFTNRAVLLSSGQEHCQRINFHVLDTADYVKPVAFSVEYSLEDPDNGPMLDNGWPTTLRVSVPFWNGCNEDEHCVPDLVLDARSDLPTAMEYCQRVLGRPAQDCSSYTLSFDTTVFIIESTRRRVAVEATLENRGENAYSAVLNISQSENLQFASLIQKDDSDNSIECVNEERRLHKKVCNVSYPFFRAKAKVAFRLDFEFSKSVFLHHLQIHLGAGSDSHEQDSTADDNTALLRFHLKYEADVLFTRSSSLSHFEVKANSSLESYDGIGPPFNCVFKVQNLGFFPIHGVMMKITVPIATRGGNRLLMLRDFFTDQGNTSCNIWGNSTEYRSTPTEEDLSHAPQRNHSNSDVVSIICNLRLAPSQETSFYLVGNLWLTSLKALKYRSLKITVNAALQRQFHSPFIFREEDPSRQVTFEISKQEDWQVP
mouse α11β1, sequence (P09055 21-728 partner limits assumed): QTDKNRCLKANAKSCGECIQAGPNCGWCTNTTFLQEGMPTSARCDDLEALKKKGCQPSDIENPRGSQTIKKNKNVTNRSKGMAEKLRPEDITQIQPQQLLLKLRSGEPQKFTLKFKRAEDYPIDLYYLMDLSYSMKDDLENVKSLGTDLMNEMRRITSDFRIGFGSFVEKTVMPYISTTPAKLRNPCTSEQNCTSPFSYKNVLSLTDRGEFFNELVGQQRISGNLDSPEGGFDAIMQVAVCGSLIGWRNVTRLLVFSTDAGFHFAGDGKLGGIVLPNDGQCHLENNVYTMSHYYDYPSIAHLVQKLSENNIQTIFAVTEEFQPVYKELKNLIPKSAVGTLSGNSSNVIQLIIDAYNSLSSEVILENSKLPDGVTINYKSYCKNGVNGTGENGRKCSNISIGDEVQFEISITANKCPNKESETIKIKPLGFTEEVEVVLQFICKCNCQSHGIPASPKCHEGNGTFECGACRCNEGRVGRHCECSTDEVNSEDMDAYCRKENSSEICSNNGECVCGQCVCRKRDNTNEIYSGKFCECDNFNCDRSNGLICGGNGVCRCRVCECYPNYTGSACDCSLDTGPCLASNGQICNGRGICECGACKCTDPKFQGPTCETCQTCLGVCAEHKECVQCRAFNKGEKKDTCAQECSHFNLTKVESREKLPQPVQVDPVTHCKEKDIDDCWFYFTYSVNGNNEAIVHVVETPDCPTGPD

B1: 9-B11: mouse anti-α11β1 mAb; VH SEQ ID NO: 115, VL SEQ ID NO: 116 (antibody, V domains shown)
VH: QVQLQQPGAELVRPGTSVKLSCKASGYTFTSYWMHWVQQRPGQGLEWIGVIDPSDSYTNYNQKFKGKATLTVDTSSSSAYMQLSSLTSEDSAVYYCARDDVAMDYWGQGTSVTVSS
VL: DIVVTQSPASLAVSLGQRATISCRASESVDSYGNSFIHWYQQKPGQPPKLLIYRASNLKSGIPARFSGSGSRTDFTLTINPVEADDVATYYCQQSNEDPYTFGGGTKLEIK
Turning to B1, the “MF FACS” value in test [1] is reported as “Yes”. Moreover, the “I Domain binding” value in test [2] is reported as “Yes”. The “Human α11β1 ELISA” value in test [3] is reported as “Yes”. Moreover, in test [4], the “HPF FACS” value is “No”. For the same molecule, the “Murine α11β1 ELISA” value in test [5] is “No”. Further, the “Inhibition of CHO-K1 adhesion to collagen” value (from here on “Inhibition”) in test [6] was “Yes”.

B2: 6-M8: mouse anti-α11β1 mAb; VH SEQ ID NO: 129, VL SEQ ID NO: 130 (antibody, V domains shown)
VH: QVQLQQPGAELVMPGASVKLSCKASGYTFTNYWMHWVKQRPGQGLEWIGEIDPSDSYTNYNQKFKGKATLTVDKSSSTAYMQLSSLTSEDSAVYYCTRQGSTYAWGQGTSVTVSS
VL: DIVMTQAAFSNPVTLGTSASISCRSSKSLLHSNGITYLYWYLQKPGQSPQLLIYQMSNLASGVPDRFSSSGSGTDFTLRISRVEAEDVGVYYCAQNLELPPTFGGGTKLEIK
Regarding B2, in test [1], the “MF FACS” value is reported as “No”. Further, the “I Domain binding” value in test [2] was “No”. Moreover, the “Human α11β1 ELISA” value in test [3] was “Yes”. Besides, in test [4], the “HPF FACS” value is “No”. For the same molecule, the “Murine α11β1 ELISA” value in test [5] is reported as “No”. For the same molecule, in test [6], the “Inhibition” value is on record as “No”.

B3: 6-O12: mouse anti-α11β1 mAb; VH SEQ ID NO: 117, VL SEQ ID NO: 118 (antibody, V domains shown)
VH: EVKLEESGGGLVQPGGSMKLSCAASGFTFSDAWMDWVRQSPEAGLEWVAEIRNKAHNPATYYAESVKGRFTISRDDSKSSVYLQMNSLRAEDTGIYYCTLVAPDAMDYWGQGTSVTVSS
VL: DIVMSLSPSSLAVSVGEKVTMSCKSSQSLLYSRNQKNYLAWYQQKPGQSPKLLIYWASTRASGVPDRFTGSGSGTDFTLTISSVKAEDLAVYYCQQYYSYPYTFGGGTKLEIK
For the molecule B3, the “MF FACS” value in test [1] is reported as “No”. Moreover, the “I Domain binding” value in test [2] is reported as “No”. Further, the “Human α11β1 ELISA” value in test [3] was “Yes”. In addition, the “HPF FACS” value in test [4] is “No”. Further, the “Murine α11β1 ELISA” value in test [5] is on record as “No”. In test [6], the “Inhibition” value is “No”.

B4: 6-B21: mouse anti-α11β1 mAb; VH SEQ ID NO: 123, VL SEQ ID NO: 124 (antibody, V domains shown)
VH: EVQLQQSGPELVKPGASVKISCKASGYTFTDYYMNWVKQSHGKSLEWIGDINPHNGGTSFIQKFKGKATLTVDKSSSTAYMELRSLTSEDSAVYYCAPLGRKEGFAYWGQGTLVTVSA
VL: DTVLTQSPASLVVSLGQRATISCRASKSVSTSGYSYMHWYQQKPGQPPKLLIYLASNLESGVPARFSGSGSGTAFTLNIHPVEEEDAATYYCQHSRELPYTFGGGTKLEIK
B4: the “MF FACS” value in test [1] is “No”. In addition, the “I Domain binding” value in test [2] is reported as “No”. Also, in test [3], the “Human α11β1 ELISA” value is “Yes”. Further, the “HPF FACS” value in test [4] is listed as “No”. Further, the “Murine α11β1 ELISA” value in test [5] is recorded as “Yes/Low”. Further, the “Inhibition” value in test [6] is recorded as “No”.

B5: 7D8B10: rat anti-α11β1 mAb; VH SEQ ID NO: 153, VL SEQ ID NO: 154 (antibody, V domains shown)
VH: MDLRLTYVFIVAILKGVLCEVKLEESGGGLVQPGMSVKLSCATSGFIFSDYWMEWVRQAPGKGLEWVAEIRNKANNYATYYGKSMKGRFTISRDDSKSIVYLQVNSIRSEDTAIYYCAPNFDYWGQGVMVTVSS
VL: MSPVQSLFLLLLWILGTHGDVVLTQTPPTLSATIGQSVSISCRSSQSLLHSTGNTYLNWLLQRPGQPPQLLIYLVSRLESGVPNRFSASGSGTDFTLKISGIEAEDLGVYYCVQSSHTPYTFGTGTKLELK
Turning to B5, the “MF FACS” value in test [1] was “Yes”. Besides, the “I Domain binding” value in test [2] is on record as “No”. For the same molecule, the “Human α11β1 ELISA” value in test [3] is reported as “Yes”. The “HPF FACS” value in test [4] is listed as “No”. Besides, in test [5], the “Murine α11β1 ELISA” value is recorded as “No”. Besides, the “Inhibition” value in test [6] was “No”.

B6: 3-G5: mouse anti-α11β1 mAb; VH SEQ ID NO: 135, VL SEQ ID NO: 136 (antibody, V domains shown)
VH: QVQLQQSGAELARPGASVKLSCKASGYTFTSYGISWVKQRTGQGLEWIGEIFPRSSNTYYNEKFKGKATLTADKSSSTVYMEFRSLTSEDSAVYFCAREGGLAWFAYWGQGTLVTVSA
VL: DVVMTQTPLTLSVTIGQPASISCKSSQSLLYTNGNTYLNWLLQRPGQSPKRLIYLVSKLDSGIPDRFSGSGSGTDFTLRISRVEAEDLGVYYCLQSTHFPFTFGSGTKLEIK
On to B6, for which the “MF FACS” value in test [1] is given as “No”. In addition, the “I Domain binding” value in test [2] is reported as “No”. In test [3], the “Human α11β1 ELISA” value is “Yes”. Also, the “HPF FACS” value in test [4] is listed as “No”. Moreover, the “Murine α11β1 ELISA” value in test [5] is “Yes/Low”. In addition, the “Inhibition” value in test [6] is given as “No”.

B7: 7-H14: mouse anti-α11β1 mAb; VH SEQ ID NO: 121, VL SEQ ID NO: 122 (antibody, V domains shown)
VH: QVQLQQPGAELVRPGASVKLSCKPSGYTFTSYWMNWVKQRPGQGLEWIGMIDPSDSETHYNQMFKDKATLTVDKSSNTAYMQLSSLTSEDSAVYYCAQIYYAYDKAYWGQGTLVTVSA
VL: DIVMSQSPSSLAVSVGEKVTMSCKSSQSLLYSSHQKNYLAWYQQKPGQSPKLLIYWASTRESGVPDRFTGSGSGTDFSLTISSVKAEDLAVYYCQEYYSWTFGGGTKLEIK
Consider B7, for which, in test [1], the “MF FACS” value is recorded as “Yes”. The “I Domain binding” value in test [2] is given as “No”. Also, the “Human α11β1 ELISA” value in test [3] was “Yes”. The “HPF FACS” value in test [4] is reported as “No”. For the same molecule, in test [5], the “Murine α11β1 ELISA” value is “Yes/Low”. Also, the “Inhibition” value in test [6] was “No”.

B8: 10-F23: mouse anti-α11β1 mAb; VH SEQ ID NO: 125, VL SEQ ID NO: 126 (antibody, V domains shown)
VH: QVTLKESGPGILQPSQTLSLTCSFSGFSLSTFAMGVGWIRQPSGKGLEWLAHIWWDDDKYYNPALKSRLTISKDTSKNHVFLKIANVDTADTATYYCARMPLTFYFDYWGQGTTLTVSS
VL: DVLLTQTPLSLPVSLGDQASISCRSSQSIVHSNGHTYLEWYLQKPGQSPKLLIYKVSNRFSGVPDRFSGSGSGTDFTLKISRVEAEDLGVYYCFQGSHVPFTFGGGTKLEIK
For the molecule B8, the “MF FACS” value in test [1] was “Yes”. Also, in test [2], the “I Domain binding” value was “Yes”. In addition, in test [3], the “Human α11β1 ELISA” value is “Yes”. Moreover, the “HPF FACS” value in test [4] is “No”. For the same molecule, in test [5], the “Murine α11β1 ELISA” value was “Yes/Low”. In test [6], the “Inhibition” value is on record as “Yes”.

B9: 6-A12: mouse anti-α11β1 mAb; VH SEQ ID NO: 127, VL SEQ ID NO: 128 (antibody, V domains shown)
VH: B8 VH with S30R, H79Q
VL: B8 VL with L4M, H35N, N58T
Take B9: the “MF FACS” value in test [1] is “Yes”. In addition, the “I Domain binding” value in test [2] was “Yes”. The “Human α11β1 ELISA” value in test [3] is reported as “Yes”. Moreover, in test [4], the “HPF FACS” value is reported as “No”. The “Murine α11β1 ELISA” value in test [5] is “Yes/Low”. Besides, the “Inhibition” value in test [6] is “Yes”.

These data come from patent publication US12460006B2, “Antibodies against integrin alpha 11 beta 1” (Momenta Pharmaceuticals, Inc., priority 2019, dated 2025).
